In patent US10738094B2, “Peptides and combination of peptides for use in immunotherapy against ovarian cancer and other cancers” (immatics biotechnologies GmbH, priority 2015, dated 2020):

Target: HLA-A*02:01 (Homo sapiens, UniProt P04439, D140Y/D185E/D98H/E176V/E277Q/G131W/G231S/I119V/I121R/I166T/I218V/L300P/L318F/N151K/N90K/P208A/P217A/Q86G/Q94H/R138H/R169H/T345S)
Test: MHC binding assay (UV-ligand exchange, beta2m ELISA)
Settings: binding to HLA-A*02:01 ranged by peptide exchange yield (UV-ligand exchange, β2m ELISA)
Procedure, shortened: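 Stabilised complexes were quantified via their β2m light chain: 100-fold-diluted monomers bound to streptavidin plates, then HRP anti-β2m at 2 ug/ml for 1 h at 37° C., TMB read at 450 nm. The value is the yield of UV-induced exchange of a photocleavable peptide for the candidate.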

Peptide exchange | Substance
“+++” (≥50 = +++) | 345 (VIWKALIHL; listed as Homo sapiens) [compound 345]
“+++” (≥50 = +++) | 346 (LLDSKVPSV; listed as Homo sapiens) [compound 346]
“++++” (≥75% = ++++) | 347 (SLFKHDPAAWEA; listed as Homo sapiens) [compound 347]
“++++” (≥75% = ++++) | 348 (ILLDVKTRL; listed as Homo sapiens) [compound 348]
“++++” (≥75% = ++++) | 349 (SLTEYLQNV; listed as Homo sapiens) [compound 349]
“+++” (≥50 = +++) | 350 (ALLDVTHSELTV; listed as Homo sapiens) [compound 350]
“+++” (≥50 = +++) | 351 (SLIPNLRNV; listed as Homo sapiens) [compound 351]
“+++” (≥50 = +++) | 352 (SLLELLHIYV; listed as Homo sapiens) [compound 352]
“++” (≥20% = ++) | 353 (YLFEMDSSL; listed as Homo sapiens) [compound 353]
“++” (≥20% = ++) | 354 (LILEGVDTV; listed as Homo sapiens) [compound 354]
“++” (≥20% = ++) | 355 (SIQQSIERLLV; listed as Homo sapiens) [compound 355]
“+++” (≥50 = +++) | 356 (KLLGKLPEL; listed as Homo sapiens) [compound 356]
“+++” (≥50 = +++) | 357 (SMHDLVLQV; listed as Homo sapiens) [compound 357]
“++++” (≥75% = ++++) | 358 (ALDEYTSEL; listed as Homo sapiens) [compound 358]
“+++” (≥50 = +++) | 359 (YLLPESVDL; listed as Homo sapiens) [compound 359]
“+++” (≥50 = +++) | 361 (ALYELEGTTV; listed as Homo sapiens) [compound 361]
“+++” (≥50 = +++) | 362 (TLYGLSVLL; listed as Homo sapiens) [compound 362]
“++” (≥20% = ++) | 363 (KVLDVSDLESV; listed as Homo sapiens) [compound 363]
“+++” (≥50 = +++) | 364 (LLQNEQFEL; listed as Homo sapiens) [compound 364]
“+++” (≥50 = +++) | 365 (YVIDQGETDVYV; listed as Homo sapiens) [compound 365]
“+++” (≥50 = +++) | 366 (RLLDMGETDLML; listed as Homo sapiens) [compound 366]
“+++” (≥50 = +++) | 367 (SLQNHNHQL; listed as Homo sapiens) [compound 367]
“+++” (≥50 = +++) | 369 (GLFPEHLIDV; listed as Homo sapiens) [compound 369]
“+++” (≥50 = +++) | 370 (SLLQDLVSV; listed as Homo sapiens) [compound 370]
“++++” (≥75% = ++++) | 371 (FLQAHLHTA; listed as Homo sapiens) [compound 371]
“++” (≥20% = ++) | 372 (TMLLNIPLV; listed as Homo sapiens) [compound 372]

Peptide exchange | Substance
“++” (≥20% = ++) | 373 (SLLEDKGLAEV; listed as Homo sapiens) [compound 373]
“++” (≥20% = ++) | 374 (FLLQQHLISA; listed as Homo sapiens) [compound 374]
“++” (≥20% = ++) | 375 (SLTETIEGV; listed as Homo sapiens) [compound 375]
“++” (≥20% = ++) | 376 (AMFESSQNVLL; listed as Homo sapiens) [compound 376]
“++” (≥20% = ++) | 377 (FLLDSSASV; listed as Homo sapiens) [compound 377]
“+++” (≥50 = +++) | 378 (ALGYFVPYV; listed as Homo sapiens) [compound 378]
“++” (≥20% = ++) | 379 (IMEGTLTRV; listed as Homo sapiens) [compound 379]
“++” (≥20% = ++) | 380 (TLIEDEIATI; listed as Homo sapiens) [compound 380]
“++” (≥20% = ++) | 381 (FIDEAYVEV; listed as Homo sapiens) [compound 381]
“++” (≥20% = ++) | 382 (ALQNYIKEA; listed as Homo sapiens) [compound 382]
“+++” (≥50 = +++) | 383 (ALLELENSVTL; listed as Homo sapiens) [compound 383]
“++” (≥20% = ++) | 385 (SLLEQGLVEA; listed as Homo sapiens) [compound 385]
“+++” (≥50 = +++) | 386 (ILFRYPLTI; listed as Homo sapiens) [compound 386]
“++++” (≥75% = ++++) | 387 (ALFQATAEV; listed as Homo sapiens) [compound 387]
“+++” (≥50 = +++) | 388 (SLTIDGIRYV; listed as Homo sapiens) [compound 388]
“++” (≥20% = ++) | 389 (LLADVTHLL; listed as Homo sapiens) [compound 389]
“+++” (≥50 = +++) | 390 (ALFMKQIYL; listed as Homo sapiens) [compound 390]
“+++” (≥50 = +++) | 391 (YVYPQRLNFV; listed as Homo sapiens) [compound 391]
“++” (≥20% = ++) | 392 (ALLHPQGFEV; listed as Homo sapiens) [compound 392]
“++” (≥20% = ++) | 393 (GLLDTQTSQVLTA; listed as Homo sapiens) [compound 393]
“+++” (≥50 = +++) | 394 (LLAVIGGLVYL; listed as Homo sapiens) [compound 394]
“++++” (≥75% = ++++) | 395 (ALALGGIAVV; listed as Homo sapiens) [compound 395]
“+++” (≥50 = +++) | 396 (ALLPDLPAL; listed as Homo sapiens) [compound 396]
“+++” (≥50 = +++) | 397 (YLFGERLLEC; listed as Homo sapiens) [compound 397]
“++” (≥20% = ++) | 398 (KLLEEDGTIITL; listed as Homo sapiens) [compound 398]
“+++” (≥50 = +++) | 399 (YLFEPLYHV; listed as Homo sapiens) [compound 399]

Peptide exchange | Substance
“++” (≥20% = ++) | 400 (SLLTEQDLWTV; listed as Homo sapiens) [compound 400]
“+++” (≥50 = +++) | 401 (ILLDDTGLAYI; listed as Homo sapiens) [compound 401]
“++” (≥20% = ++) | 402 (VLFSGALLGL; listed as Homo sapiens) [compound 402]
“++” (≥20% = ++) | 403 (KLYDRILRV; listed as Homo sapiens) [compound 403]
“++” (≥20% = ++) | 405 (ALYDVFLEV; listed as Homo sapiens) [compound 405]
“+++” (≥50 = +++) | 407 (YLMDLINFL; listed as Homo sapiens) [compound 407]
“++” (≥20% = ++) | 408 (VLDDSIYLV; listed as Homo sapiens) [compound 408]
“++” (≥20% = ++) | 409 (LLDAMNYHL; listed as Homo sapiens) [compound 409]
“++” (≥20% = ++) | 412 (YLDDLNEGVYI; listed as Homo sapiens) [compound 412]
“+++” (≥50 = +++) | 426 (RLADKSVLV; listed as Homo sapiens) [compound 426]
“+++” (≥50 = +++) | 427 (ALLPLSPYL; listed as Homo sapiens) [compound 427]
“++” (≥20% = ++) | 428 (KLGHTDILVGV; listed as Homo sapiens) [compound 428]
“++” (≥20% = ++) | 429 (GLVNDLARV; listed as Homo sapiens) [compound 429]
“+++” (≥50 = +++) | 430 (HLYSSIEHLTT; listed as Homo sapiens) [compound 430]
“++” (≥20% = ++) | 431 (SLVNVVPKL; listed as Homo sapiens) [compound 431]
“++” (≥20% = ++) | 432 (TLIEESAKV; listed as Homo sapiens) [compound 432]
“+++” (≥50 = +++) | 433 (AMLNEPWAV; listed as Homo sapiens) [compound 433]
“++” (≥20% = ++) | 434 (KVSNSGITRV; listed as Homo sapiens) [compound 434]
“+++” (≥50 = +++) | 436 (HLAEVSAEV; listed as Homo sapiens) [compound 436]
“+++” (≥50 = +++) | 437 (SMAPGLVIQAV; listed as Homo sapiens) [compound 437]
“++++” (≥75% = ++++) | 438 (KLLPLAGLYL; listed as Homo sapiens) [compound 438]
“+++” (≥50 = +++) | 439 (YLLQEIYGI; listed as Homo sapiens) [compound 439]
“++” (≥20% = ++) | 440 (ALADGVTMQV; listed as Homo sapiens) [compound 440]
“+++” (≥50 = +++) | 441 (ALLENPKMEL; listed as Homo sapiens) [compound 441]
“+++” (≥50 = +++) | 442 (GLLGGGGVLGV; listed as Homo sapiens) [compound 442]
“+++” (≥50 = +++) | 444 (GLLRDEALAEV; listed as Homo sapiens) [compound 444]
